Laboratory results from patent US20030077273A1.
Blank lines part the entries; values can stand above or below the substance they belong to.

Legend:
[1] = molecular target: human CD21 on Raji cells (CD21+ human Burkitt's lymphoma cell line) (human) (UniProt P20023); assay: flow cytometry, control BSA-coated microspheres on Raji cells, 25 microspheres per cell
[2] = molecular target: human CD21 on Raji cells (CD21+ human Burkitt's lymphoma cell line) (human) (UniProt P20023); assay: flow cytometry, control BSA-coated microspheres on Raji cells, 50 microspheres per cell
[3] = molecular target: human CD21 on Raji cells (CD21+ human Burkitt's lymphoma cell line) (human) (UniProt P20023); assay: flow cytometry, control BSA-coated microspheres on Raji cells, 100 microspheres per cell
[4] = molecular target: human CD21 on Raji cells (CD21+ human Burkitt's lymphoma cell line) (human) (UniProt P20023); assay: cell ELISA on Raji cells, anti-mouse IgG-AP
[5] = molecular target: recombinant soluble human CD21 (1-2)-Ig fusion protein (human) (UniProt P20023); assay: direct ELISA, sCD21-coated wells, anti-mouse Ig kappa-AP
[6] = molecular target: human CD21 on Raji cells (CD21+ human Burkitt's lymphoma cell line) (human) (UniProt P20023); assay: flow cytometry on Raji cells, anti-mouse IgG-FITC
[7] = molecular target: mouse Ig G lambda (isotype of the Ig fusion partner), coated on wells; assay: direct ELISA, MoIg-coated control wells, anti-mouse Ig kappa-AP
[8] = molecular target: human CD21 on Raji cells (CD21+ human Burkitt's lymphoma cell line) (human) (UniProt P20023); assay: flow cytometry, competition: C3d beads 100:1 on Raji cells with 30 ng HB5
[9] = molecular target: human CD21 on Raji cells (CD21+ human Burkitt's lymphoma cell line) (human) (UniProt P20023); assay: flow cytometry, competition: C3d beads 50:1 on Raji cells with 30 ng HB5
[10] = molecular target: human CD21 on Raji cells (CD21+ human Burkitt's lymphoma cell line) (human) (UniProt P20023); assay: flow cytometry, competition: C3d beads 25:1 on Raji cells with 15 ng HB5
[11] = molecular target: human CD21 on Raji cells (CD21+ human Burkitt's lymphoma cell line) (human) (UniProt P20023); assay: flow cytometry, competition: C3d beads 25:1 on Raji cells with 30 ng HB5
[12] = molecular target: human CD21 on Raji cells (CD21+ human Burkitt's lymphoma cell line) (human) (UniProt P20023); assay: flow cytometry, competition: C3d beads 100:1 on Raji cells with 15 ng HB5
[13] = molecular target: human CD21 on Raji cells (CD21+ human Burkitt's lymphoma cell line) (human) (UniProt P20023); assay: flow cytometry, competition: C3d beads 50:1 on Raji cells with 15 ng HB5

Chain of human CD21 on Raji cells (CD21+ human Burkitt's lymphoma cell line) (human) (P20023 21-1033): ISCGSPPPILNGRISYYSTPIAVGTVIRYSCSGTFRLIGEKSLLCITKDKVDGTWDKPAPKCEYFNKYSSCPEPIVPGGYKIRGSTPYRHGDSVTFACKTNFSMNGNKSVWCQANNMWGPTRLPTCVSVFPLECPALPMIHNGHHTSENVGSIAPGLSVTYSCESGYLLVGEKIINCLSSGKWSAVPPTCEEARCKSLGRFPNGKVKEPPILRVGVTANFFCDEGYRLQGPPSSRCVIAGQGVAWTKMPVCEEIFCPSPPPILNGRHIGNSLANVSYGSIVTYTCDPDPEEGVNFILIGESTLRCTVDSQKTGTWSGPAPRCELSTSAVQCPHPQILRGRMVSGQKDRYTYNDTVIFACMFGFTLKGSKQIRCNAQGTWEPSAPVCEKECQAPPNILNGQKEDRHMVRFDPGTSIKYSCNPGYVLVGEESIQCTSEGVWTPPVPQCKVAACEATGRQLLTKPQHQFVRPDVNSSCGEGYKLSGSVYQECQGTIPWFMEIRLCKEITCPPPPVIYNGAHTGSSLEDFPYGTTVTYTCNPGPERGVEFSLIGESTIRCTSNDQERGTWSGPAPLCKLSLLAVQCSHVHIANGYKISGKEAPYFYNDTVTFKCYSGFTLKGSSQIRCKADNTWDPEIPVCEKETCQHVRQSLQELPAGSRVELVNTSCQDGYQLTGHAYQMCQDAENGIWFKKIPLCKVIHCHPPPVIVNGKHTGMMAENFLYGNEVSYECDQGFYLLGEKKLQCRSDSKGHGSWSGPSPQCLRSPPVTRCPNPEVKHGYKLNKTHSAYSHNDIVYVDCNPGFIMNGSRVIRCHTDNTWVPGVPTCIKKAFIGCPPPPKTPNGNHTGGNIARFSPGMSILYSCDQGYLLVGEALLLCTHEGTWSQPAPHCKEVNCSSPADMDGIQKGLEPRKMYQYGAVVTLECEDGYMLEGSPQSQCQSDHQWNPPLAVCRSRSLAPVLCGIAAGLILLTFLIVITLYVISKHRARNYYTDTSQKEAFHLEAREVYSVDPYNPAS
Chain of recombinant soluble human CD21 (1-2)-Ig fusion protein (human) (P20023 21-148): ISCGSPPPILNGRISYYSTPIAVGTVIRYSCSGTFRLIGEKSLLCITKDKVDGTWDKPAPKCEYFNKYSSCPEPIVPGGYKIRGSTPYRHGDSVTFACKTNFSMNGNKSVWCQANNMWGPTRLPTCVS

Substance: BSA coated on 1 um fluorescent microspheres (from UniProt P02769 25-607)
% Cells Bound [1]: 1.5% | % Cells Bound [2]: 6.83% | % Cells Bound [3]: 22.6%

Substance: OKB7 (mouse anti-human CD21, Ortho Diagnostics) (antibody)
OD [5]: 0.44 OD | Mean Fluorescent Index (MFI) [6]: 123 MFI | OD [7]: 0.096 OD

Substance: anti-human CD21 mAb BE-5 (BioSource International) (antibody)
Mean Fluorescent Index (MFI) [6]: 85 MFI | OD 550 nm [4]: 0.546 OD 550 nm

The remaining lines, values ahead:

OD 550 nm [4]: 0.072 OD 550 nm
Substance: Mouse IgG (control) (antibody)

OD 550 nm [4]: 1.17 OD 550 nm
Substance: anti-human CD21 mAb Bly-4 (antibody)

% Cells Bound (by C3d beads in presence of mAb) [8]: 67.2% | % Inhibition by mAb [8]: 9.4% | % Cells Bound (by C3d beads in presence of mAb) [9]: 39.8% | % Inhibition by mAb [9]: 20.5% | % Cells Bound (by C3d beads in presence of mAb) [10]: 19.4% | % Inhibition by mAb [10]: 11.8% | Mean Fluorescent Index (MFI) [6]: 117 MFI | % Cells Bound (by C3d beads in presence of mAb) [11]: 15.4% | % Inhibition by mAb [11]: 29.7% | % Cells Bound (by C3d beads in presence of mAb) [12]: 69.3% | % Inhibition by mAb [12]: 6.5% | % Cells Bound (by C3d beads in presence of mAb) [13]: 42.4% | % Inhibition by mAb [13]: 15.3%
Substance: mouse anti-human CD21 mAb HB5 (BD Pharmingen) (antibody)
